Patent publication US20220362357A1, “Synergistic Combinations of Amino Acid Depletion Agent Sensitizers (AADAS) and Amino Acid Depletion Agents (AADA), and Therapeutic Methods of Use Thereof” (STICHTING RADBOUD UNIVERSITAIR MEDISCH CENTRUM, priority 2018, published 2022)

Legend:
[1] = test system: Human Acute Lymphoblastic Leukemia blasts in NSG mice; settings: for bodyweight: NSG mice, ibrutinib 25 mg/kg oral daily 9 days, ONCASPAR 300 IU/kg IV days 1, 4, 7
Experimental: Procedure. The experimental design is schematized in FIG. 7A. Briefly, thirty-two (32) NOD.Cg-Prkdcscid I2rgtm1Wjl/SzJ (“NSG”) mice were injected intrafemorally with 500,000 leukemic blasts (2 injections/mouse) (Human Acute Lymphoblastic Leukemia). […] During and after treatment, mice were weighed weekly, and their welfare was evaluated daily. Blood samples were taken weekly for assessment of the leukemia burden. Termination was predefined with a leukemia burden reaching 50% leukemic blasts in peripheral blood as measured by flow cytometry or euthanasia because of overt signs of discomfort due to disease.
The primary outcome of this experiment was event-free survival, where event was defined as […]. Differences in event-free survival were analyzed using a Kaplan-Meier plot and significance was tested using the log-rank test.

[2] = test system: 30 cell lines covering a variety of cancer cell types; assay: ApoTox-Glo Triplex Assay (viability, cytotoxicity, apoptosis), 3-4 days, panel; assay type: cell-based; settings: in still other cases
Experimental: Two incubation times were tested. […] Ibrutinib was the AADAS as detailed above.
Cell culture conditions. Adherent tumor cells were grown as monolayer at 37° C. in a humidified atmosphere (5% CO2, 95% air). […] The cells were counted and their viability assessed by 0.25% trypan blue exclusion assay.
Cell plating for 3 to 4 day incubation.
Each compound was tested alone at 6 doses.
Experiments were performed in duplicate.
Two protocols of incubation were performed: overnight and over 3/4 days as indicated.
The assay was performed as recommended by the manufacturer. […] The assay was performed as recommended by the manufacturer. […] Apoptosis was measured in luminescence.

HBP-ALL cells = assay: T-ALL cell line viability and cell death by amine exposure; assay type: cell-based, human; settings: 3 or 7 days
LOUCY cells = assay: as above; assay type: cell-based, human; settings: 3 or 7 days

Molecule | bodyweight [1] | mice that reached the termination point (>50% leukemic blasts) after 10 weeks ([1]; weeks after transplantation) | leukemia development ([1]; human leukemic blasts in blood by flow cytometry) | resistance of the cells [2] | sensitivity, cell death by amine exposure (HBP-ALL cells) | sensitivity, cell death by amine exposure (LOUCY cells)
C=CC(=O)N1CCC[C@@H](n2nc(-c3ccc(Oc4ccccc4)cc3)c3c(N)ncnc32)C1 [ibrutinib, reference compound] | mild and transient drop in bodyweight | 4/7 | – | – | – | –
PEG-Asparaginase: E. coli-derived peg-conjugated ASNase, used in the in vivo studies (protein, UniProt P00805 23-348, looked up, PEG conjugate (pegaspargase)) L-asparaginase 2: LPNITILATGGTIAGGGDSATKSNYTVGKVGVENLVNAVPQLKDIANVKGEQVVNIGSQDMNDNVWLTLAKKINTDCDKTDGFVITHGTDTMEETAYFLDLTVKCDKPVVMVGAMRPSTSMSADGPFNLYNAVVTAADKASANRGVLVVMNDTVLDGRDVTKTNTTDVATFKSVNYGPLGYIHNGKIDYQRTPARKHTSDTPFDVSKLNELPKVGIVYNYANASDLPAKALVDAGYDGIVSAGVGNGNLYKSVFDTLATAAKTGTAVVRSSRVPTGATTQDAEVDDAKYGFVASGTLNPQKARVLLQLALTQTKDPQQIQQIFNQY | strong but transient weight loss | – | stronger delay in leukemia development | – | – | –
…®: recombinantly produced E. coli ASNase, NCBI Ref Seq WP_000394140.1, ATC Code L01XX02 (protein, UniProt P00805 23-348, looked up) L-asparaginase 2: LPNITILATGGTIAGGGDSATKSNYTVGKVGVENLVNAVPQLKDIANVKGEQVVNIGSQDMNDNVWLTLAKKINTDCDKTDGFVITHGTDTMEETAYFLDLTVKCDKPVVMVGAMRPSTSMSADGPFNLYNAVVTAADKASANRGVLVVMNDTVLDGRDVTKTNTTDVATFKSVNYGPLGYIHNGKIDYQRTPARKHTSDTPFDVSKLNELPKVGIVYNYANASDLPAKALVDAGYDGIVSAGVGNGNLYKSVFDTLATAAKTGTAVVRSSRVPTGATTQDAEVDDAKYGFVASGTLNPQKARVLLQLALTQTKDPQQIQQIFNQY | – | – | – | somewhat resistant | extremely sensitive | extremely sensitive
